Data as given in patent US11795488B2, “Methods for enzymatic peptide ligation” (NANYANG TECHNOLOGICAL UNIVERSITY, priority 2016, dated 2023).
Where “and” joins values, the source holds several entries; their conditions need not be identical. Equal entries are not always repeated.

Tests used:
[1] = test system: peptide "[…]" (SEQ ID NO: 19); assay: Peptide cyclization assay of butelase 1; assay type: biochemical; conditions: butelase 1 extracted from plant, peptide GLPVSTKPVATRNHV
Method: Native and modified amino acids were purchased from Sigma-Aldrich (USA). All peptides used in this manuscript were synthesized in-house using the solid-phase method and HPLC purified. Cyclization assays were performed in 50-μl reaction mixtures containing 20 mM phosphate buffer, ligases (5 to 700 nM) and peptide substrates (10 to 300 μM). Each reaction was performed in triplicate at 37° C. and quenched by adding 5 μl of 1 M HCl solution. The peptides were separated by using a reversed-phase C18 analytical column (150×2.1 mm, Vydac) with a linear gradient from 10% to 50% acetonitrile over 15 min on a Nexera UHPLC system (Shimadzu). For kinetic analysis, the concentrations of WT OaAEP1, mutant OaAEP1, and butelase 1 were fixed at 700 nM, 50 nM, and 20 nM, respectively. The cyclization velocities were calculated by converting the HPLC-peak areas of remained linear precursors or the cyclized products into concentrations. The identity of each HPLC peak was analyzed by MALDI-TOF MS (ABI 4800 MALDI TOF/TOF). […] Comparison for the cyclization efficiency of various OaAEP1 mutants were performed in a volume of 20 μl of the reaction mixture and analyzed by MALDI-TOF MS after 10 mins or 1 hour ligation reaction.
The peptide cyclization activity of mature OaAEP1 was then analyzed using MS and the peptide substrate “[…]” (SEQ ID NO: 18) (FIG. 5A). […]

[2] = test system: peptide substrate "[…]" (SEQ ID NO: 18); assay: Peptide cyclization assay, kinetic analysis (HPLC/MS); assay type: biochemical; conditions: cyclization of GLPVSTKPVATRNGL, 37° C., enzyme 700 nM
Method: Native and modified amino acids were purchased from Sigma-Aldrich (USA). All peptides used in this manuscript were synthesized in-house using the solid-phase method and HPLC purified. Cyclization assays were performed in 50-μl reaction mixtures containing 20 mM phosphate buffer, ligases (5 to 700 nM) and peptide substrates (10 to 300 μM). Each reaction was performed in triplicate at 37° C. and quenched by adding 5 μl of 1 M HCl solution. The peptides were separated by using a reversed-phase C18 analytical column (150×2.1 mm, Vydac) with a linear gradient from 10% to 50% acetonitrile over 15 min on a Nexera UHPLC system (Shimadzu). For kinetic analysis, the concentrations of WT OaAEP1, mutant OaAEP1, and butelase 1 were fixed at 700 nM, 50 nM, and 20 nM, respectively. The cyclization velocities were calculated by converting the HPLC-peak areas of remained linear precursors or the cyclized products into concentrations. The identity of each HPLC peak was analyzed by MALDI-TOF MS (ABI 4800 MALDI TOF/TOF). The velocities were input into GraphPad Prism (GraphPad Software, San Diego) to obtain the Michaelis-Menten curve and the kinetic parameters (kcat and Km). Comparison for the cyclization efficiency of various OaAEP1 mutants were performed in a volume of 20 μl of the reaction mixture and analyzed by MALDI-TOF MS after 10 mins or 1 hour ligation reaction.
The peptide cyclization activity of mature OaAEP1 was then analyzed using MS and the peptide substrate “[…]” (SEQ ID NO: 18) (FIG. 5A). The turn-over rate (kcat) for OaAEP1 is 0.052 s^−1, a value in good agreement with the previous report (Harris, K. S., et al., Nat Commun, 2015. 6: p. 10199). Likewise, the cyclization activity of butelase 1 extracted from plant was measured using the 15 residues peptide “[…]” (SEQ ID NO: 19) (FIG. 5A) leading to a kcat about 90 times faster than OaAEP1 b.

[3] = test system: ubiquitin and SNAP tag protein; assay: Ligation of two well-folded proteins; assay type: biochemical
Method: (a) Fluorescence detection using 02 benzylcytosine-Alexa647 of the SNAP protein and SDS PAGE analysis with Comassie blue staining detection of the protein substrate and ligated products. The reaction is schematically depicted as inset. Cys247Ala ligates well folded protein well. […] (b) As little as 30 nM Cys247Ala catalyze ligation of 100 μM Ubiquitin and 500 μM biotin labelled peptide efficiently in 30 min, at room temperature, in pH 7.4 PBS buffer.
The ability of Cys247Ala to ligate ubiquitin with a peptide was first tested. The three residues“Asn-Gly-Leu” were added to the C-terminus of ubiquitin to make it recognizable by Cys247Ala. Another peptide having N-terminal residues GlyLeu was used as the add-on component. At a protein: peptide molar ratio of 1:5, Cys247Ala catalyzed the ligation of more than 90% ubiquitin with the peptide within 10 min (FIG. 6). An amount of 30 nM of Cys247Ala was enough for the reaction compared to 10-30 μM of sortase A typically required to perform productive ligations. […] Ubiquitin having the same “Asn-Gly-Leu” modification at its C-terminal end and a N-terminal modified SNAP (NEB) tag protein were used as substrates. […] Protein ligation can be performed within minutes at neutral pH and at room temperature.

[4] = test system: OaAEP1; assay: Self-activation (acid-induced self-cleavage) of OaAEP1 and mutants, SDS PAGE; assay type: biochemical, Oldenlandia affinis; conditions: activation for 3 hours
Method: To self-activate OaAEP1, 1 mM EDTA and 0.5 mM Tris (2-carboxyethyl) phosphine hydrochloride were added to the immature protein and the pH of the solution was adjusted to 4 with glacial acetic acid. Fractions containing the protein (as analyzed by SDS-PAGE) were pooled and then incubated for 3 to 16 hours at room temperature or 37° C. Protein precipitation at this pH allowed removal of the bulk of the contaminating proteins by centrifugation. Activated proteins were concentrated by ultracentrifugation using a 50 kDa cutoff concentrator (Sartorius) and stored at −80° C.
OaAEP1 was cloned and expressed in E. coli as an ubiquitin fusion protein as reported earlier (FIG. 2) (Harris, K. S., et al., Nat Commun, 2015. 6: p. 10199). Using ion exchange and size exclusion chromatography (SEC), sufficient amounts of pure protein suitable for enzymatic and structural analysis were obtained (FIG. 2B). At the neutral pH of purification (pH=7.4), OaAEP1 was mainly present as a heterodimer, where both monomers are in their zymogenic form, but only one monomer had retained in addition the ubiquitin and N-terminal His-tag, while the fusion moiety was cleaved in the other monomer (labeled as “His-Ub-AEP-FL” and “AEP-FL” in FIG. 2B and FIG. 2C). This heterodimer was subjected to crystallization trials for structural studies (see below). In agreement with reference (Harris, K. S., et al., Nat Commun, 2015. 6: p. 10199), activation of OaAEP1 was optimum for pH values in the range of 3.4-4.0 (FIG. 2D). Following activation, OaAEP1 converts to a monomer in solution according to SEC analysis (“AEP-holo” in FIG. 2C). To test the ability of the protein to be activated in trans, the catalytic residue Cys217 was mutated into Ser217.
Since the crystallization conditions are compatible with OaAEP1 activation, the present crystal structure is likely to have captured one of the conformational states occurring along the activation pathway. To determine whether Gln347 belongs to the segment recognized and cleaved during self-activation, mutagenesis experiments targeting region 346-351 of the OaAEP1 protein were performed (FIG. 4C). The role of Gln347 in OaAEP1 auto-activation was particularly assessed by mutating this residue to Ala, and whether enzyme activation was abolished was examined. Only little impact was found on the mutant enzyme activation (FIG. 4C). Residues Asn346, Asp349 and Asp351 that are next to Gln347 were then targeted. […] Thus, trans-activation requires the presence of at least one of the four Asx/Gln residues (with a slight preference for Asp349 or Asp351) found in this segment of the linker.

[5] = test system: ubiquitin with C-terminal Asn-Gly-Leu and peptide having N-terminal residues GlyLeu; conditions: comparison value; cited from earlier work
Chain of ubiquitin with C-terminal Asn-Gly-Leu and peptide having N-terminal residues GlyLeu (as listed by the source): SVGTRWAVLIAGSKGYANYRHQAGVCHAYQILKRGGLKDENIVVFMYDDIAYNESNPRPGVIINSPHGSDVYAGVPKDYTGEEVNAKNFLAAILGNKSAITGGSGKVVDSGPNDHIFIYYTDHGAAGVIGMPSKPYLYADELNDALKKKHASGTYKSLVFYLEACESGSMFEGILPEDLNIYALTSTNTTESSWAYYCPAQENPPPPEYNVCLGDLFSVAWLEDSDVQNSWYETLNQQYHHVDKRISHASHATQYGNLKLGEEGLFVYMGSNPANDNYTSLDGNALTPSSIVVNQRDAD

B1: butelase 1: AEP1 from Clitoria ternatea, Asx peptide ligase extracted from plant, SEQ ID NO:4 (protein, listed as Clitoria ternatea)
chain: IRDDFLRLPSQASKFFQADDNVEGTRWAVLVAGSKGYVNYRHQADVCHAYQILKKGGLKDENIIVFMYDDIAYNESNPHPGVIINHPYGSDVYKGVPKDYVGEDINPPNFYAVLLANKSALTGTGSGKVLDSGPNDHVFIYYTDHGGAGVLGMPSKPYIAASDLNDVLKKKHASGTYKSIVFYVESCESGSMFDGLLPEDHNIYVMGASDTGESSWVTYCPLQHPSPPPEYDVCVGDLFSVAWLEDCDVHNLQTETFQQQYEVVKNKTIVALIEDGTHVVQYGDVGLSKQTLFVYMGTDPANDNNTFTDKNSLGTPRKAVSQRDADLIHYWEKYRRAPEGSSRKAEAKKQLREVMAHRMHIDNSVKHIGKLLFGIEKGHKMLNNVRPAGLPVVDDWDCFKTLIRTFETHCGSLSEYGMKHMRSFANLCNAGIRKEQMAEASAQACVSIPDNPWSSLHAGFSV
kcat relative to OaAEP1b [1]: about 90 times

B2: OaAEP1: wild type asparaginyl endopeptidase from Oldenlandia affinis, SEQ ID NO:3, weak peptide cyclase (protein, listed as Ovaloparmena affinis)
chain: MVRYLAGAVLLLVVLSVAAAVSGARDGDYLHLPSEVSRFFRPQETNDDHGEDSVGTRWAVLIAGSKGYANYRHQAGVCHAYQILKRGGLKDENIVVFMYDDIAYNESNPRPGVIINSPHGSDVYAGVPKDYTGEEVNAKNFLAAILGNKSAITGGSGKVVDSGPNDHIFIYYTDHGAAGVIGMPSKPYLYADELNDALKKKHASGTYKSLVFYLEACESGSMFEGILPEDLNIYALTSTNTTESSWCYYCPAQENPPPPEYNVCLGDLFSVAWLEDSDVQNSWYETLNQQYHHVDKRISHASHATQYGNLKLGEEGLFVYMGSNPANDNYTSLDGNALTPSSIVVNQRDADLLHLWEKFRKAPEGSARKEEAQTQIFKAMSHRVHIDSSIKLIGKLLFGIEKCTEILNAVRPAGQPLVDDWACLRSLVGTFETHCGSLSEYGMRHTRTIANICNAGISEEQMAEAASQACASIP
turn-over rate (kcat) [2]: 0.052 s⁻¹
protein ligation activity (control ligation experiments) [3]: but not with the OaAEP1 wild type construct
ligation of SNAP tag protein with Ubiquitin ([3]; 5 μM SNAP tag, 100 nM Cys247Ala, 4000 nM wild type OaAEP1b): not
pH optimum of activation [4]: 3.4-4.0 pH and 3.4 to 4 pH

B3: sortase A: bacterial sortase commonly used to catalyze transpeptidation reactions; recognizes LPXTG (protein, UniProt Q2FV99 1-206, looked up)
Sortase A: MKKWTNRLMTIAGVVLILVAAYLFAKPHIDNYLHDKDKDEKIEQYDKNVKEQASKDKKQQAKPQIPKDKSKVAGYIEIPDADIKEPVYPGPATPEQLNRGVSFAEENESLDDQNISIAGHTFIDRPNYQFTNLKAAKKGSMVYFKVGNETRKYKMTSIRDVKPTDVGVLDEQKGKDKQLTLITCDDYNEKTGVWEKRKIFVATEVK
amount of enzyme typically required to perform productive ligations [5]: 10 to 30 µM
